The test addresses T1, GRP78 (UniProt P11021 19-654).
T1 construct: Endogenous protein of PC-9 cells
In words: cross-immunoprecipitation. The procedure:
FIGS. 6A-6B show A) immunoprecipitation with GR 6A04. Boxed area was excised for mass spectrometry. B) Mass spectrometry analysis of excised region identified the top 5 putative antigens after removal of non-specific hits found in the same region in the Column Control lane. […] The antigen identity was then validated by a pull-down with commercial antibodies against the target, and a cross-probe of the immunoprecipitated products with GR 6A04, and vice-versa. GRP78 was tested by cross-IP and ruled out as possible antigen for GR 6A04.
Immunoprecipitation (IP) was conducted using the automated Phynexus MEA system (Phynexus Inc., USA). GR6A04 was captured onto Protein G PhyTip columns containing 5 ul of resin bed. The column was then washed with PBS to remove unbound proteins, and PC-9 membrane protein extract was introduced to bind to GR6A04 that has been captured on the column. The column was then washed with Wash Buffer II (140 mM NaCl, pH7.4) before elution at low pH with Elution Buffer (200 mM NaH2PO4/140 mM NaCl pH 2.5) and neutralized immediately with 1 M Tris-Cl pH 9.0. The IP product is then subjected to analysis by Western blot.

T1 sequence (P11021 19-654 limits assumed): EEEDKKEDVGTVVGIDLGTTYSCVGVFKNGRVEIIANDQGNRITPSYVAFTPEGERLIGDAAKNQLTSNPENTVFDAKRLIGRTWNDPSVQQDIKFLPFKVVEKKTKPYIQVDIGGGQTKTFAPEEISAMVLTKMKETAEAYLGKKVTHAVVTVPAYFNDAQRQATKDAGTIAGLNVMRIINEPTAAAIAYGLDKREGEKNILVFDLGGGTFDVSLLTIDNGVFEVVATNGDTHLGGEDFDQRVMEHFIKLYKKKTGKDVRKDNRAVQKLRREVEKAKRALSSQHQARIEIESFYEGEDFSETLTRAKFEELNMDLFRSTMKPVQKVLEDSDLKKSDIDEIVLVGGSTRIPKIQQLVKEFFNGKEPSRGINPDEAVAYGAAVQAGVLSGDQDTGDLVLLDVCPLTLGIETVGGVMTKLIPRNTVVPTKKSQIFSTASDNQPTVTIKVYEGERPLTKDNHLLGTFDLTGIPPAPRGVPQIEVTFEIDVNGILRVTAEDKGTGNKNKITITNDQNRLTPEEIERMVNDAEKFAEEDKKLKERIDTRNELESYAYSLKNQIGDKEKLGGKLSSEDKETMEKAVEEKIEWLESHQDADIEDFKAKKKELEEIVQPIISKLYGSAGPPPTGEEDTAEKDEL

B1: GR6A04 monoclonal antibody (antibody, mouse IgG1, V domains shown)
VH: SGPELVKPGASVKMSCKASGNTFTSYVMHWVKQKPGQGLEWIGYINPYNDGTKYNEKFKGKATLTSDKSSSTAYMELSSLTSEDSAVYYCARSTARATPYFYAMDYWGQGTSVTVSS
VL: DILMTQSPSSLAVTAGEKVTMRCKSSQSLLWSVNQNSYLSWYQLKQGQPPKLLLYGASIRESWVPDRFTGSGSGTDFTLTISNVHVEDLAVYYCQHNHGSFLPYTFGGGTKLEIK
notes: also called mAb GR 6A04
As for B1, the binding result is recorded as “no binding”.

The values are drawn from US20250230236A1 (SINGAPORE HEALTH SERVICES PTE, published 2025).
